Data as given in patent US20250043290A1, “RNA SEQUENCES THAT INDUCE FLUORESCENCE OF SMALL MOLECULE FLUOROPHORES, MOLECULAR COMPLEXES, SENSORS, AND METHODS OF USE THEREOF” (CORNELL UNIVERSITY, priority 2021, published 2025).

Assays:
[1] = Fluorescence activation of DFHBI-1T by aptamers in vitro; assay type: biochemical
Excerpt: FIG. 1A is a schematic illustrating the strategy for evolution of the add A-riboswitch aptamer. Indicated are helices P1-P3, junctional strands (J1/2, J2/3, J3/1), kissing loop (gray lines), and adenine interactions with the aptamer (dotted line) (5′-CUUCAUAUAAUCCUAAUGAUAUGGUUUGGGAGUUUCUACCAAGAGCCUUAAACUCUUGAUUAUGAAG-3′ (SEQ ID NO:36)). The chemical structure of adenine and fluorophores are shown. Three regions (Region 1: 5′-UAU AAU-3′ (SEQ ID NO:37)), Region 2: 5′-AGU UUC UAC C-3′ (SEQ ID NO:38); Region 3: 5′-GAU UAU-3′ SEQ ID NO:39), which include J1/2, J2/3, and J3/1 were randomized in both size and sequence resulting in a sprouts/clips library for SELEX. Each nucleotide in the colored regions was replaced using a combination of random stochastic deletion (designated “N”) and random stochastic insertion (designated “n”). FIG. 1B is schematic showing a three dimensional structure of the add A-riboswitch aptamer highlighting the adenine-binding pocket (PDB 1Y26). The mutagenized regions are shown in the same color as FIG. 1A. Adenine is indicated by the arrow. FIG. 1C is a schematic illustrating the evolution of the add A-riboswitch aptamer into Squash, a DFHBI-1T-binding aptamer. The sprouts/clips library was selected for binding to DFHBI-conjugated agarose resulting in aptamer 9-1. Aptamer 9-1 was subjected to two consecutive rounds of directed evolution generating DE2-6. A pair of mutations was introduced in DE2-6 to strengthen the kissing loop interaction resulting in Squash. FIG. 1D is a graph showing fluorescence activation of DFHBI-1T by different aptamer intermediates that led to Squash. The values inside the bars indicate fold-activation of DFHBI-1T fluorescence by the corresponding aptamer. Data represent mean values±s.d. for n=3 independent experiments. […]
(§1) FIG. 6A is a bar graph showing fluorescence activation of DFHO by Squash and its precursors. Fluorescence was measured with 200 nM dye and 10 μM RNA (ex: 495 nm, em: 562 nm, except for Corn; ex: 505 nm, em: 545 nm). […] FIG. 6B is a bar graph showing fluorescence of initial hits after Round 7 of SELEX. In vitro transcribed RNAs from each hit (1 μM final) were mixed with DFHBI-1T (10 μM final) and the fluorescence was measured (ex: 452 nm, em: 503 nm, except for Broccoli; ex: 472 nm, em: 507 nm). […] FIGS. 6C-6D are bar graphs showing fluorescence measurements of the hits with DFHBI-1T after first (FIG. 6C) and second (FIG. 6D) round of directed evolution, measured as in FIG. 6B. […] FIG. 6E is a bar graph showing fluorescence measurements of hits using DFHO after the second round of directed evolution measured as in FIG. 6A. The fluorescence of the hits were normalized against Corn. […] FIG. 6F is a graph showing normalized fluorescence. […] Fluorescence was measured as in FIG. 6A. […]

[2] = Fluorescence activation of DFHO by aptamers in vitro; assay type: biochemical
Excerpt: FIG. 2A is a schematic showing the secondary structure of Squash as predicted by mFOLD (Squash: 5′-GGCUACAAGGUGAGCCCAAUAAUACGGUUUGGGUUAGGAUAGGAAGUAGAGCCGUAAACUCUCUAAGCGGUAGUC-3′ (SEQ ID NO:1)). Squash retained the main structural elements of add A-riboswitch aptamer including a 3-way junction and predicted kissing loop interactions (residues at positions 30, 31, 56, and 57, solid gray line). An additional base pair in the kissing loop between loop L2 and L3 (residues at positions 29 and 58, dotted gray line) improved fluorescence activation. […] Shown are the excitation (Ex) and emission (Em) spectra of Squash bound to DFHBI-1T and DFHO (structures shown in inset). Spectra were measured using 20 μM RNA and 2 μM of the indicated fluorogenic dye. […] Fluorescence activation was measured by incubating 200 nM dye and 10 μM RNA. By using a large excess of RNA compared to the fluorophore, it was ensured that the fluorescence observed is from 200 nM RNA-fluorophore complex. Data represent mean values±s.d. for n=3 independent experiments. The values inside the bars indicate fold activation. AU, arbitrary units. FIG. 2D is a graph showing the dissociation constant (Kd) between Squash and DFHO as measured by titration of 50 nM Squash with increasing concentration of DFHO, and fitted using a one-site saturation model. […] FIG. 2E is a bar graph showing the results of an experiment in which Squash-DFHO fluorescence was measured in buffers containing exclusively the indicated cations. […] Similar to the parental add A-riboswitch aptamer (see Lemay et al., “Folding of the Adenine Riboswitch,” Chem. Biol. 13:857-868 (2006), which is hereby incorporated by reference in its entirety), Squash-DFHO has a low magnesium requirement for fluorescence activation. […]
as §1

B1: Squash: fluorogenic RNA aptamer evolved from the add A-riboswitch aptamer, binds DFHBI-1T and DFHO; SEQ ID NO: 12 (SEQ ID NO: 1) (nucleic acid)
chain: AGGUGAGCCCAAUAAUACGGUUUGGGUUAGGAUAGGAAGUAGAGCCGUAAACUCUCUAAGCG
modifications: RNA, backbone not given here
Fold activation of DFHBI-1T fluorescence [1]: 1064 fold | Fold activation of DFHO fluorescence [2]: 550 fold | Activation of DFHO compared to Corn ([2]; 200 nM dye and 10 μM RNA): > 2 fold | Fluorescence intensity with DFHO compared to Corn ([2]; 10 μM RNA, 1 μM DFHO): more than two-fold higher
